Patent US20120121587A1 (Chugai, published 2012)

T1: Human recombinant AXL-FND1 (GST-FND1), from pET-41b(+) (human, UniProt P30530 225-331)
T1 construct: Expressed in E. coli, purified on Glutathione Sepharose; analyte in all Biacore measurements; GST put first by the usual layout of pET-41; not shown: GST-tag of vector pET-41b(+) (Novagen)
T1 sequence (looked up): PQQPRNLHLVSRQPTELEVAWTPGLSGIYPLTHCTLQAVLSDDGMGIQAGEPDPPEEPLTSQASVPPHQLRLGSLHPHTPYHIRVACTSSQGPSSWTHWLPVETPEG

B1: H36/L11 (antibody, human IgG1, kappa)
heavy: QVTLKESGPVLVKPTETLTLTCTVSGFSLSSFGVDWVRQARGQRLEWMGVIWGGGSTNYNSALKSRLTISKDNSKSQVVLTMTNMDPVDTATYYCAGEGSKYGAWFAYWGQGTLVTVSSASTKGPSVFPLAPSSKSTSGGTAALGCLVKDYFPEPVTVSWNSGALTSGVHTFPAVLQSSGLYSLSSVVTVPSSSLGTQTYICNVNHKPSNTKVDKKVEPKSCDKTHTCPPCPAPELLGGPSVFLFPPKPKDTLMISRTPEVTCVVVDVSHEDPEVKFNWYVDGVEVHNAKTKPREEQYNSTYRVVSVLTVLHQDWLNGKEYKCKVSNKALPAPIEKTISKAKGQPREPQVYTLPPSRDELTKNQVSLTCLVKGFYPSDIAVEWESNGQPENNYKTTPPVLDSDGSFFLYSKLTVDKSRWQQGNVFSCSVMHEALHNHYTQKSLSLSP
light: DVVMTQSPLSLPVTLGQPASISCQSSQNIVHTNGNTYLEWYQQKPGKAPELLIYKVSNRFSGVPDRFSGSGSGTDFTLKISRVEAEDVGVYYCFQGSHIPFTFGQGTKVEIERTVAAPSVFIFPPSDEQLKSGTASVVCLLNNFYPREAKVQWKVDNALQSGNSQESVTEQDSKDSTYSLSSTLTLSKADYEKHKVYACEVTHQGLSSPVTKSFNRGEC
B2: H36/L31 (antibody, human IgG1, kappa)
heavy: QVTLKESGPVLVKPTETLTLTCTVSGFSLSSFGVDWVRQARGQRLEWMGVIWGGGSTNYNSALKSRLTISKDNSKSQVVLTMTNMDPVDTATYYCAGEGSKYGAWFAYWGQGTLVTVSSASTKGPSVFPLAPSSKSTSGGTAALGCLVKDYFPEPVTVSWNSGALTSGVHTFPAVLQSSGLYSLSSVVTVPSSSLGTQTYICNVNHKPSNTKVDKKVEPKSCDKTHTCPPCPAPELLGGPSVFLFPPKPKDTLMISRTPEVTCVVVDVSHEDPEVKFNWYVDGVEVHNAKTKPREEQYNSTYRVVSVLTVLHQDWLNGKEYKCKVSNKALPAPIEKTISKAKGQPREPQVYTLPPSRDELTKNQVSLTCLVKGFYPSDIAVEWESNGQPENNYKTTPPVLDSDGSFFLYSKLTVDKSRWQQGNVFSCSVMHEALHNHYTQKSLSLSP
light: DVVMTQSPLSLPVTLGQPASISCRSSRNIVHTNGNTYLEWYQQKPGKAPKLLIYKVSNRFSGVPDRFSGSGSGTDFTLKISRVEAEDVGVYYCFQGSHIPFTFGQGTKLEIKRTVAAPSVFIFPPSDEQLKSGTASVVCLLNNFYPREAKVQWKVDNALQSGNSQESVTEQDSKDSTYSLSSTLTLSKADYEKHKVYACEVTHQGLSSPVTKSFNRGEC
B3: H40/L0 (antibody, human IgG1, kappa, V domains shown)
VH: QVTLKESGPVLVKPTETLTLTCTVSGFSLSKFGVDWVRQARGQRLEWMGVIWGGGSTNYNSALKSRLTISKDNSKSQVVLTMTNMDPVDTATYYCAGEGSKYGAWFAYWGQGTLVTVSS
VL: DVVMTQSPLSLPVTLGQPASISCRSSQNIVHTNGNTYLEWYQQKPGKAPELLIYKVSNRFSGVPDRFSGSGSGTDFTLKISRVEAEDVGVYYCFQGSHIPFTFGQGTKLEIKR
B4: H46/L11 (antibody, human IgG1, kappa)
heavy: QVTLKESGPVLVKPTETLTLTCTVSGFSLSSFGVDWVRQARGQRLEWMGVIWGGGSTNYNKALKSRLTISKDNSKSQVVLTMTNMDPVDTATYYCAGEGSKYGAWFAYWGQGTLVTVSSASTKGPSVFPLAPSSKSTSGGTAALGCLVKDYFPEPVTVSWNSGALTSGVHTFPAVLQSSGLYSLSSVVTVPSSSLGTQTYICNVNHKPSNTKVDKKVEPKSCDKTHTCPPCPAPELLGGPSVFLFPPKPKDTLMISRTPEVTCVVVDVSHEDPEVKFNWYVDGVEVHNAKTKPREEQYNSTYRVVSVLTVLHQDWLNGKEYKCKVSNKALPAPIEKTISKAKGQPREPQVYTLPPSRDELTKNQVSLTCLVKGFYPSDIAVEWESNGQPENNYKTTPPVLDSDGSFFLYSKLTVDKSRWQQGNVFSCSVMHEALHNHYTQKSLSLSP
light: DVVMTQSPLSLPVTLGQPASISCQSSQNIVHTNGNTYLEWYQQKPGKAPELLIYKVSNRFSGVPDRFSGSGSGTDFTLKISRVEAEDVGVYYCFQGSHIPFTFGQGTKVEIERTVAAPSVFIFPPSDEQLKSGTASVVCLLNNFYPREAKVQWKVDNALQSGNSQESVTEQDSKDSTYSLSSTLTLSKADYEKHKVYACEVTHQGLSSPVTKSFNRGEC
B5: H39/L0 (antibody, human IgG1, kappa)
heavy: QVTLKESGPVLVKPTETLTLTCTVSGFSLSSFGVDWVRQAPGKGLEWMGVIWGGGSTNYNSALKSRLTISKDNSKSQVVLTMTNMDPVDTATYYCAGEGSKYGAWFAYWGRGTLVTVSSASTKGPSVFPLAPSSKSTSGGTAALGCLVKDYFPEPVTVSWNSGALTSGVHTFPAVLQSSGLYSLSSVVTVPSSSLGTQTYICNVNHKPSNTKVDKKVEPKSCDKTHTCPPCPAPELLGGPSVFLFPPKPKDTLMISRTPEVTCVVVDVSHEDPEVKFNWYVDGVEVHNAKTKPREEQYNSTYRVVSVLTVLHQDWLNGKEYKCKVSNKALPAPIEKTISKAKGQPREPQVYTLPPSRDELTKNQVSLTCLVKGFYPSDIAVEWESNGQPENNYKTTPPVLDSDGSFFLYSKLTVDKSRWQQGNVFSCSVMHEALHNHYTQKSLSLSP
light: DVVMTQSPLSLPVTLGQPASISCRSSQNIVHTNGNTYLEWYQQKPGKAPELLIYKVSNRFSGVPDRFSGSGSGTDFTLKISRVEAEDVGVYYCFQGSHIPFTFGQGTKLEIKRTVAAPSVFIFPPSDEQLKSGTASVVCLLNNFYPREAKVQWKVDNALQSGNSQESVTEQDSKDSTYSLSSTLTLSKADYEKHKVYACEVTHQGLSSPVTKSFNRGEC
B6: H37/L0 (antibody, human IgG1, kappa, V domains shown)
VH: QVTLKESGPVLVKPTETLTLTCTVSGFSLSSFGVDWVRQAPGKGLEWMGVIWGGGSTNYNRALKSRLTISKDNSKSQVVLTMTNMDPVDTATYYCAGEGSKYGAWFAYWGQGTLVTVSS
VL: DVVMTQSPLSLPVTLGQPASISCRSSQNIVHTNGNTYLEWYQQKPGKAPELLIYKVSNRFSGVPDRFSGSGSGTDFTLKISRVEAEDVGVYYCFQGSHIPFTFGQGTKLEIKR
B7: H36/L37 (antibody, human IgG1, kappa)
heavy: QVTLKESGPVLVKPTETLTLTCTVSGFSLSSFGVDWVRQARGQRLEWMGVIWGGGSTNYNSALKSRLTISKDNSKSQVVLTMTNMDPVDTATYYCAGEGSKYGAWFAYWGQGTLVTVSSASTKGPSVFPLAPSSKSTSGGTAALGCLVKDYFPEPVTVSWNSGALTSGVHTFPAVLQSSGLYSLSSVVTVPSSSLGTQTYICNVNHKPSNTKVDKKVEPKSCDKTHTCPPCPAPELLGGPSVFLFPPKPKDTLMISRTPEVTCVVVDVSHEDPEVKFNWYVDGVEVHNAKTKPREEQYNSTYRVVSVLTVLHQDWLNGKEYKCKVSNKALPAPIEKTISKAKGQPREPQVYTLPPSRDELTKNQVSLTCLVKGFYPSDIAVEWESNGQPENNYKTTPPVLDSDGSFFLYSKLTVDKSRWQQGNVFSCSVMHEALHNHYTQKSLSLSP
light: DVVMTQSPLSLPVTLGRPASISCRSSRNIVHTNGNTYLEWYQQKPGKAPKLLIYKVSNRFSGVPDRFSGSGSGTDFTLKISRVEAEDVGVYYCFQGSHIPFTFGRGTKLEIKRTVAAPSVFIFPPSDEQLKSGTASVVCLLNNFYPREAKVQWKVDNALQSGNSQESVTEQDSKDSTYSLSSTLTLSKADYEKHKVYACEVTHQGLSSPVTKSFNRGEC
B8: H46/L1 (antibody, human IgG1, kappa)
heavy: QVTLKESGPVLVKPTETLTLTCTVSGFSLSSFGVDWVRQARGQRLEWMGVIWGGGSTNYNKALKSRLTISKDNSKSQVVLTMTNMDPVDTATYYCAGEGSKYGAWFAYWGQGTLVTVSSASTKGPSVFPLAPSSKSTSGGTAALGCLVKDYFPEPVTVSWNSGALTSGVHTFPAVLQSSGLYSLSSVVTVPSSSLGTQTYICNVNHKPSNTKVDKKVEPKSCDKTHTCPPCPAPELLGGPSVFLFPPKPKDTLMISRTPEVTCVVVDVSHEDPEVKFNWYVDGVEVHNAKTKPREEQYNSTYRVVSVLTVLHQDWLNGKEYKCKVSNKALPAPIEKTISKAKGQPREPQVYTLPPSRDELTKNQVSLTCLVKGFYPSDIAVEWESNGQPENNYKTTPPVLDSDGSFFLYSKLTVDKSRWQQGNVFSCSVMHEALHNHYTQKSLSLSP
light: DVVMTQSPLSLPVTLGQPASISCQSSQNIVHTNGNTYLEWYQQKPGKAPELLIYKVSNRFSGVPDRFSGSGSGTDFTLKISRVEAEDVGVYYCFQGSHIPFTFGQGTKLEIKRTVAAPSVFIFPPSDEQLKSGTASVVCLLNNFYPREAKVQWKVDNALQSGNSQESVTEQDSKDSTYSLSSTLTLSKADYEKHKVYACEVTHQGLSSPVTKSFNRGEC
B9: H41/L0 (antibody, human IgG1, kappa, V domains shown)
VH: QVTLKESGPVLVKPTETLTLTCTVSGFSLSRFGVDWVRQARGQRLEWMGVIWGGGSTNYNSALKSRLTISKDNSKSQVVLTMTNMDPVDTATYYCAGEGSKYGAWFAYWGQGTLVTVSS
VL: DVVMTQSPLSLPVTLGQPASISCRSSQNIVHTNGNTYLEWYQQKPGKAPELLIYKVSNRFSGVPDRFSGSGSGTDFTLKISRVEAEDVGVYYCFQGSHIPFTFGQGTKLEIKR
B10: H46/L10 (antibody, human IgG1, kappa)
heavy: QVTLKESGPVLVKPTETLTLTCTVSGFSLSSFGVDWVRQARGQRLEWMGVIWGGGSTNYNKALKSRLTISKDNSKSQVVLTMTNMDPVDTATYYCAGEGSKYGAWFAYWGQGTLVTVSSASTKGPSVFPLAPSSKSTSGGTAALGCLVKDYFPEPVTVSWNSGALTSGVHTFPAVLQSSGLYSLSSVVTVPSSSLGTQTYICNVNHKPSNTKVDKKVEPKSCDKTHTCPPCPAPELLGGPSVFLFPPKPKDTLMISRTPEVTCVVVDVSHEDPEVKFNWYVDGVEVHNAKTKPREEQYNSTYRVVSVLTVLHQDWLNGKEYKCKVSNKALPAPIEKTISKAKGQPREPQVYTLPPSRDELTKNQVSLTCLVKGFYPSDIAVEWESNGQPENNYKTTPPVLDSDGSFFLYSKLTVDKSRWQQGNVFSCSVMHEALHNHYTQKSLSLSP
light: DVVMTQSPLSLPVTLGQPASISCRSSQNIVHTNGNTYLEWYQQKPGKAPELLIYKVSNRFSGVPDRFSGSGSGTDFTLKISRVEAEDVGVYYCFQGSHIPFTFGQGTKVEIERTVAAPSVFIFPPSDEQLKSGTASVVCLLNNFYPREAKVQWKVDNALQSGNSQESVTEQDSKDSTYSLSSTLTLSKADYEKHKVYACEVTHQGLSSPVTKSFNRGEC
B11: H36/L35 (antibody, human IgG1, kappa)
heavy: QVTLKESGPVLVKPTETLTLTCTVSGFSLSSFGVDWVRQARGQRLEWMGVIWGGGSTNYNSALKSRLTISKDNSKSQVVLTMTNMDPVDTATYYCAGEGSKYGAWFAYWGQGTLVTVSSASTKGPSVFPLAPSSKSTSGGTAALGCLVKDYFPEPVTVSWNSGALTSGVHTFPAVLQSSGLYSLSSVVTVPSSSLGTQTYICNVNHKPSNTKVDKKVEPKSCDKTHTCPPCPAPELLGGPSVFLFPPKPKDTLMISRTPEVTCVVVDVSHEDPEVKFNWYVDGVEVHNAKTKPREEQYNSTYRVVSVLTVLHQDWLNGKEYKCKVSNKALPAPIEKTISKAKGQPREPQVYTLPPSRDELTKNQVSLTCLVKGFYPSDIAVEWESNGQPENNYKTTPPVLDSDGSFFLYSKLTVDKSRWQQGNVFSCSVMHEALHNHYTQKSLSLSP
light: DVVMTQSPLSLPVTLGQPASISCRSSRNIVHTNGNTYLEWYQQKPGKAPKLLIYKVSNRFSGVPDRFSGSGSGTDFTLKISRVEAEDVGVYYCFQGSHIPFTFGRGTKLEIKRTVAAPSVFIFPPSDEQLKSGTASVVCLLNNFYPREAKVQWKVDNALQSGNSQESVTEQDSKDSTYSLSSTLTLSKADYEKHKVYACEVTHQGLSSPVTKSFNRGEC
B12: H36/L27 (antibody, human IgG1, kappa)
heavy: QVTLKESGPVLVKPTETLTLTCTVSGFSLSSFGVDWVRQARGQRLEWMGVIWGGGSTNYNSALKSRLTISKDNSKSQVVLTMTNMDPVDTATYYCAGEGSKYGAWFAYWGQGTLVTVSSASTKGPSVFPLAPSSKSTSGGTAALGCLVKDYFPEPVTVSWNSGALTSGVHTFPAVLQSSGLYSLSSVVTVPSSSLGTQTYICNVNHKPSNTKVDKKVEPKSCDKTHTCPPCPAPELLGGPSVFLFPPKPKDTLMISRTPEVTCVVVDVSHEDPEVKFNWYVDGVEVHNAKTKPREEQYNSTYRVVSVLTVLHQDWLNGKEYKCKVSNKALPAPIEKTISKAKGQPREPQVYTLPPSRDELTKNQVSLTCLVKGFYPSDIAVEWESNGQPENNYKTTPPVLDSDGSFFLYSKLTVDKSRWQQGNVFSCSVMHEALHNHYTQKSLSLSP
light: DVVMTQSPLSLPVTLGQPASISCRSSRNIVHTNGNTYLEWYQQKPGKAPELLIYKVSNRFSGVPDRFSGSGSGTDFTLKISRVEAEDVGVYYCFQGSHIPFTFGQGTKLEIKRTVAAPSVFIFPPSDEQLKSGTASVVCLLNNFYPREAKVQWKVDNALQSGNSQESVTEQDSKDSTYSLSSTLTLSKADYEKHKVYACEVTHQGLSSPVTKSFNRGEC
B13: H38/L0 (antibody, human IgG1, kappa, V domains shown)
VH: QVTLKESGPVLVKPTETLTLTCTVSGFSLSSFGVDWVRQAPGKGLEWMGVIWGGGSTNYNKALKSRLTISKDNSKSQVVLTMTNMDPVDTATYYCAGEGSKYGAWFAYWGQGTLVTVSS
VL: DVVMTQSPLSLPVTLGQPASISCRSSQNIVHTNGNTYLEWYQQKPGKAPELLIYKVSNRFSGVPDRFSGSGSGTDFTLKISRVEAEDVGVYYCFQGSHIPFTFGQGTKLEIKR
B14: H36/L28 (antibody, human IgG1, kappa)
heavy: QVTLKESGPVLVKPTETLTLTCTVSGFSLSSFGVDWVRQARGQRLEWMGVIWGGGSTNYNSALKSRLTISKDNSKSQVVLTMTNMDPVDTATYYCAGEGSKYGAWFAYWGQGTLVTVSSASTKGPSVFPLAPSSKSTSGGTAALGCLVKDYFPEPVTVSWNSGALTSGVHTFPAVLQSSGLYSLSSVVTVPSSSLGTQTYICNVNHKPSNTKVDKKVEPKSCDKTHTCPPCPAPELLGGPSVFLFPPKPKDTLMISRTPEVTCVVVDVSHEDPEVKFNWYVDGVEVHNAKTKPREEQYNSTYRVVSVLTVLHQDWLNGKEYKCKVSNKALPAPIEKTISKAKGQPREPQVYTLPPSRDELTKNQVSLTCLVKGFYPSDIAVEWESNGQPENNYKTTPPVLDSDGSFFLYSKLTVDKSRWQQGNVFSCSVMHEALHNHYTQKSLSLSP
light: DVVMTQSPLSLPVTLGQPASISCRSSQNIVHTNGNTYLEWYQQKPGKAPKLLIYKVSNRFSGVPDRFSGSGSGTDFTLKISRVEAEDVGVYYCFQGSHIPFTFGQGTKLEIKRTVAAPSVFIFPPSDEQLKSGTASVVCLLNNFYPREAKVQWKVDNALQSGNSQESVTEQDSKDSTYSLSSTLTLSKADYEKHKVYACEVTHQGLSSPVTKSFNRGEC
B15: H46/L0 (antibody, human IgG1, kappa)
heavy: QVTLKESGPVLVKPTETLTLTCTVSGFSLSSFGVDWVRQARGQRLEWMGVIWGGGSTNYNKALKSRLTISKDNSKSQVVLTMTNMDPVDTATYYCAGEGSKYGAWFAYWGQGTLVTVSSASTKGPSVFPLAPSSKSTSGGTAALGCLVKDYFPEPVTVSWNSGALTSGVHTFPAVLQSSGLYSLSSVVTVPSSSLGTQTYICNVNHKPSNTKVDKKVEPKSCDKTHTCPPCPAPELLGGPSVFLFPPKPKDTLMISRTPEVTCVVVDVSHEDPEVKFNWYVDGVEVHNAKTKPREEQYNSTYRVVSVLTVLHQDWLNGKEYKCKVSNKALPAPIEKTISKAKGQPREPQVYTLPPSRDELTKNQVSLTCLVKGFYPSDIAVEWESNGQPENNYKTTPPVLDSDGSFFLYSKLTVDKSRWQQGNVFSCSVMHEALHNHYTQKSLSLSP
light: DVVMTQSPLSLPVTLGQPASISCRSSQNIVHTNGNTYLEWYQQKPGKAPELLIYKVSNRFSGVPDRFSGSGSGTDFTLKISRVEAEDVGVYYCFQGSHIPFTFGQGTKLEIKRTVAAPSVFIFPPSDEQLKSGTASVVCLLNNFYPREAKVQWKVDNALQSGNSQESVTEQDSKDSTYSLSSTLTLSKADYEKHKVYACEVTHQGLSSPVTKSFNRGEC
B16: H36/L34 (antibody, human IgG1, kappa)
heavy: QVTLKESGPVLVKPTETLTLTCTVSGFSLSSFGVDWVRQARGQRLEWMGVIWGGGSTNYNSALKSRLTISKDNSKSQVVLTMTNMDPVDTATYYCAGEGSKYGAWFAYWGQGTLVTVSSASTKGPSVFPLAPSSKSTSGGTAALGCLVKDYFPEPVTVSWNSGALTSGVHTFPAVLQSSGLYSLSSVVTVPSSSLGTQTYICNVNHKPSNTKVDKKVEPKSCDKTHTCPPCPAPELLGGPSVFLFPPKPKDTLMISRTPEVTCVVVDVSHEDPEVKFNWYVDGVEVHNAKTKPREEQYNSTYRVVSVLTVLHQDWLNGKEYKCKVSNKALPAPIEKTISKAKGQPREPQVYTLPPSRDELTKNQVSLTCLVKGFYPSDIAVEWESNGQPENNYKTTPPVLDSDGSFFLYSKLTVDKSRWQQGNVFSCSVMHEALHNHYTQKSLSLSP
light: DVVMTQSPLSLPVTLGRPASISCRSSRNIVHTNGNTYLEWYQQKPGKAPKLLIYKVSNRFSGVPDRFSGSGSGTDFTLKISRVEAEDVGVYYCFQGSHIPFTFGQGTKLEIKRTVAAPSVFIFPPSDEQLKSGTASVVCLLNNFYPREAKVQWKVDNALQSGNSQESVTEQDSKDSTYSLSSTLTLSKADYEKHKVYACEVTHQGLSSPVTKSFNRGEC

Each binder was assayed against T1, Human recombinant AXL-FND1 (GST-FND1), … (assay: SPR (Biacore T100): antibody captured on Protein A, GST-FND1 as analyte).
Description: Kinetic analyses of antigen-antibody reactions of humanized AXL antibodies were carried out using Biacore T100 (BIACORE). rec-Protein A (Zymed) (hereinafter, Protein A) was immobilized onto a sensor chip, various antibodies were bound to it, then an antigen as the analyte was flushed to measure the antibody-antigen interaction. Human recombinant AXL-FND1 (prepared in 2-2; hereinafter referred to as GST-FND1) prepared at various concentrations was used as the antigen. From the sensorgrams obtained through the measurements, kinetic parameters, namely binding rate constant kₐ (1/Ms) and dissociation rate constant kd (1/s), were calculated, and Kd (M) was calculated based on these values. Biacore T100 Evaluation Software (BIACORE) was used to calculate each of the parameters.
The sensor chips were produced by immobilizing approximately 3000 RU of Protein A onto CM5 (BIACORE) by amine coupling. Using the produced sensor chip, kinetic analyses were carried out on the interaction between the Protein A-bound antibodies and GST-FND1. HBS-EP+ was used as the running buffer, and the flow rate was set to 30 μL/min. Each antibody was prepared at 1 μg/mL using the running buffer, and was subjected to binding with Protein A for two minutes. GST-FND1 as the analyte was prepared at 0.5 and 2.0 μg/mL using HBS-EP+. Measurements were carried out by first binding the various humanized AXL antibodies, chimeric AXL antibodies, or mouse AXL antibodies of interest to Protein A, then applying an analyte solution to them for a two-minute interaction, and then switching to HBS-EP+ (BIACORE) for a two-minute measurement of the dissociation phase. After completion of measurement of the dissociation phase, 30 μL of 10 mM glycine-HCl (pH 2.0) was used for washing to regenerate the sensor chip. Such binding, dissociation, and regeneration were defined as one cycle of analysis. All experiments were performed at 25° C.
Affinity evaluation of each of the variants by Biacore was carried out by the method of Example 2.
Binder B1 has a Kd of 2.08 nM.
B2 gave a Kd of 1.67 nM.
With B3 the Kd was 3.51 nM.
In the case of B4, the Kd is reported as 1.8 nM.
B5 showed a Kd of 3.43 nM.
B6 showed a Kd of 2.92 nM.
With B7 the Kd was 2.2 nM.
With B8 the Kd was 1.84 nM.
With B9 the Kd was 2.35 nM.
B10 showed a Kd of 1.88 nM.
B11 was tested, and the Kd was 1.94 nM.
In the case of B12, the Kd is reported as 1.94 nM.
With B13 the Kd was 2.92 nM.
B14 gave a Kd of 1.95 nM.
With B15 the Kd was 1.87 nM.
B16 was tested, and the Kd was 2.01 nM.
